Common to all, as to assay: ELISA
A general note: In an ELISA, binding on a coated surface is turned into a signal by an enzyme label.

Assay [1] addresses Ec FimHLD.
Assay [2] addresses T1, Kp FimHLD.
T1 chain: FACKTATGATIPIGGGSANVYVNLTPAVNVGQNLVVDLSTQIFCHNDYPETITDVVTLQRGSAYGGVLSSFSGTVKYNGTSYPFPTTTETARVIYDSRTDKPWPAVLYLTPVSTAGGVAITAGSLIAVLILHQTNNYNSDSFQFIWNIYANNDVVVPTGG

Assay [3] addresses T2, Ec FmlHLD.
T2 chain: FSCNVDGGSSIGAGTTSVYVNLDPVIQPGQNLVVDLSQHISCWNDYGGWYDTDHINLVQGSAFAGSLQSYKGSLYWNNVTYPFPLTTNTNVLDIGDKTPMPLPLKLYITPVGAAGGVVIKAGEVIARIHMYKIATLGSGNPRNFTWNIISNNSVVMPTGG

Drawing on patent publication US20250304662A1 (published 2025), this text covers EC50 for 19 molecules.

Positions count from the first letter of the chain named.

In general, EC50 refers to the concentration at which the effect is half-maximal. The low end stands for a more potent agent, the high end for a less potent agent.

B1: Kp 2C09 (antibody, V domains shown)
VH: EVMLVESGEDLVKPGGSLKLSCIASGFTFSSYAMSWVRQTPEKRLEWVAYISSGGDYIYYTDTVKGRFTISRDNARNTLFLQMSSLKSEDTAMYYCTRDTGYYVSRYFDVWGTGTTVTVSS
VL: DIVMTQSQKFMSTSVGDRVSVTCKASQNVGTNVAWYQQKPGQSPKALIYSASFRNSGVPDRFTGSGSGTDFTLTISNVQSEDLAEYFCHQYNNYPLTFGGGTKLEIKR
With B1, the values for the EC50 in assay [1] and in assay [2] were 0.0129 µg/mL and 0.0101 µg/mL, respectively.

B2: Kp 2D07 (antibody, V domains shown)
VH: EVQLQQSGPELVRPGASVKISCKASGYTFTDYYIHWLKQRPGQGLEWIGLIFPGSGSIYCNEKFKGKATLTVDKSSTTAYMLLSSLTSEDSAVYFCARWETTAWYFDVWGTGTTVTVSS
VL: QIVLTQSPAILSASPGEKVTMTCRASLSVSYMHWYQQKPGSSPKPWIYATSNLASGVPARFSGSGSGTSYSLTVSRVEAEDAATYYCQQWRSYPYTFGGGTKLEIKR
Consider B2, for which the EC50 in assay [3] amounted to 0.0178 µg/mL; in assay [1], 0.0129 µg/mL; in assay [2], 0.0144 µg/mL.

B3: Kp 1E07 (antibody, V domains shown)
VH: EVQLQQPGAELVKPGASVKLSCKASGYTFTSYWMHWVKQRPGQGLEWIGLIHPNSGSTYYNEKFKNKATLTVDKSSSTAYMQLSSLTSEDSAVYYCARWDDSYWYFKVWGTGTTVTVSS
VL: B2 VL with L27S, V74I, R91S, Y93N
Take B3: the EC50 in assay [3] came out at 0.0117 µg/mL; in assay [1], 0.0094 µg/mL; in assay [2], 0.0115 µg/mL.

B4: Kp 2D04 (antibody, V domains shown)
VH: EVQLQQPGGELVRPGSSVKMSCKTSGYTFTFYGINWVKQRPGQGLEWIGYIYVGNGYTEYNEKFKVKATLTSDTSSSTAYMQLSGLTSEDSAIYFCARSDGYNYFDYWGQGTTLTVSS
VL: B2 VL with S12T, L27S, S30H, V74I, A82T, Q88H, R91S, Y93N, Y95P, G99A
On to B4, for which the results for the EC50 in assay [1] and in assay [2] were 0.0121 µg/mL and 0.0119 µg/mL, respectively.

B5: Kp 1A09 (antibody, V domains shown)
VH: B3 VH
VL: B2 VL with L27S, V74I, R91S, Y93N
As to B5, the EC50 in assay [3] worked out at 0.018 µg/mL; in assay [1], 0.0135 µg/mL; in assay [2], 0.0161 µg/mL.

B6: 2G04 (antibody, V domains shown)
VH: EVQLQQPGPELVKPGSSLKISCKASGYTFTDYFINWVKQRPGQGLDWIGWIFPGSGSTYYNDKFKGKATLTVDKSSSTAYMLLSSLTSEASAVYFCARWDSDSTYWYFDVWGTGTTVTVSS
VL: QIVLTQSPALMAASPGEKVTITCSVNSSISSSTLHWYQQKSQTSPKPWIYGTSNLASGVPIRFSGSGSGTSYSLTISSMEAEDAATYYCQQWSTYPYTFGGGTKLEIKR
B6: the EC50 in assay [3] stood at 2.89 µg/mL; in assay [1], 0.0115 µg/mL; in assay [2] it was 0.0081 µg/mL.

B7: Ec1 F7 (antibody, V domains shown)
VH: EVQLQQPGPVLVKPGPSVKISCKASGFTFTDYFIHWVKQSHGKSLEWIGLVSPYNGGTYYNQQFKGKATLTVDTSSSTAYMDLNSLTSEDSAVYYCTRLLRGYWYFDVWGTGTTVTVSS
VL: B6 VL with N26S, S30G, T33N, Q42E, I61V
For the molecule B7, the half-maximal effective concentration (EC50) in assay [3] was found to be 0.0083 µg/mL; in assay [1], 0.0109 µg/mL; in assay [2] it was 0.0078 µg/mL.

B8: Kp 2E08 (antibody, V domains shown)
VH: EVQLQQPGAELAKPGASVKLSCKASGYNFTSYWMHWVKQRPGQGLEWIGLIHPNSGGTYYNEKFKSKATLTLDRSSSTAYMQLSSLTSEDSAVYYCARFEEEWGGYWYFDVWGTGTTVTVSS
VL: B6 VL with N26S, T33N, Q42E, I61V, T94S
B8: the EC50 worked out at 0.0092 µg/mL in assay [1] and 0.0149 µg/mL in assay [2].

B9: Kp 2H07 (antibody, V domains shown)
VH: EVQLQQSGPVLVKPGPSVNISCKASGFTFTDYYIHWVKQSHGKSLEWIGLVYPYSGGTYYNQKFKGKATLTVDASSSTAYMELGSLTSEDSAVYYCARLGDNFYYFDYWGQGTTLTVSS
VL: B6 VL with A9T, N26S, T33N, Q42E, I61V, S93R, T94S
As for B9, the EC50 in assay [3] turned out to be 2.72 µg/mL; in assay [1] it was 0.0104 µg/mL; in assay [2] it was 0.0137 µg/mL.

B10: Kp 1C01 (antibody, V domains shown)
VH: EVQLQQPGPVLVKPGPSVKISCKASGFTFTDYYMHWVKQSHGKSLEWIGLVSPYNGGTFYNQKFKGKATLTVDTSSSTAYMELNSLTSEDSAVYYCARVGNSYVHYAMDYWGQGTSVTVSS
VL: B6 VL with N26S, T33N, Q42E, I61V, T94N
For B10, the EC50 in assay [3] was found to be 0.886 µg/mL; in assay [1], 0.0146 µg/mL; in assay [2], 0.0125 µg/mL.

B11: Ec H9 (antibody, V domains shown)
VH: B7 VH with P7S, I34V, T97A
VL: B6 VL with N26S, Q42E, I61V, S64G
As for B11, the EC50 in assay [3] turned out to be 0.015 µg/mL; in assay [1] it was 0.0301 µg/mL; in assay [2], 0.0243 µg/mL.

B12: Kp 2G02 (antibody, V domains shown)
VH: EVQLQQSGPVLVKPGPSVKISCKASGFTFTDYYMHWVKQSHGKSLEWIGLVYPYNGGTYYNQKFKGKATLTVDTSSSTAYMELNSLTSEDSAVYYCVRLGNGSSNEWYFDVWGTGTTVTVSS
VL: B6 VL with N26S, S32Y, T33N, Q42E, I61V, S93R, Y97W
Regarding B12, the EC50 was found to be 0.0144 µg/mL in assay [3], 0.015 µg/mL in assay [1] and 0.0105 µg/mL in assay [2].

B13: Kp1 2H04 (antibody, V domains shown)
VH: EVQLQQSGAELVKPGASVKLSCKASGYTFTSYWMHWVKQRPGQGLEWIGLIHPNSSSTYYNEKFKTRATLTVDKSSSTAYMQLSSLTSEDSAVYYCARLGYGNSYWYFDVWGTGTTVTVSS
VL: B6 VL with N26S, T33N, Q42E, M79L, S93R, T94S, Y97W
Take B13: the EC50 in assay [3] came to 0.0154 µg/mL; in assay [1], 0.0178 µg/mL; in assay [2], 0.0096 µg/mL.

B14: Kp1 2E02 (antibody, V domains shown)
VH: EVQLQQSGPVLVKPGPSVKISCKASGFTFTDYYIHWVKRSHGKSLEWIGLVSPYNGGTFYNQKFKGKATLTVDTSSNTAYMELTSLTSEDSAVYYCARLGVNWYFDVWGTGTTVTVSS
VL: B6 VL with I21L, N26S, Q42E, I61V
As to B14, the values for the concentration giving a half-maximal response (EC50) in assay [3], in assay [1] and in assay [2] were 0.0097 µg/mL, 0.0127 µg/mL and 0.0127 µg/mL, respectively.

B15: Kp1 1B03 (antibody, V domains shown)
VH: EVQLQQSGAELVKPGASVKLSCKASGYTFTSYWMHWVQQRPGQGLEWIGLIHPIGGGTHYNEKFKNKATLTVDKSSSTAYMQLSSLTSEDSAVYYCARLGTGPYYFDYWGQGTTLTVSS
VL: B6 VL with N26S, H35D, Q42E, I49V, I61V, T94S, Y97W
Turning to B15, the EC50 in assay [3] worked out at 3.06 µg/mL; in assay [1] it was 0.0092 µg/mL; in assay [2], 0.0125 µg/mL.

B16: Kp 2D10 (antibody, V domains shown)
VH: B8 VH with P7S, A12V, N28T, S31T, V37M, R40W, G57S, L72V, R74K, E102L
VL: B6 VL with N26S, T33N, Q42E, I61V, T94S
For the molecule B16, the EC50 in assay [3] turned out to be 10.1 µg/mL; in assay [1] it was 0.0119 µg/mL; in assay [2], 0.0109 µg/mL.

B17: Kp 2B06 (antibody, V domains shown)
VH: EVQLQQPGAELVKPGASVKLSCKASGYTFTNYWMHWVKHRPGRGLEWIGRIDPNSGGTKYNEKFKNKATLTVDNPSSTGYMQLSSLTSEDSAVYYCTRSGYDYPDYWGQGTTLTVSS
VL: DIVLTQSPASLAVSLGQRATISCRASESVEYYGTSLMQWYQQKPGQPPKVLIYAASNVDSGVPPRFSGSGSGTDFSLNFHPVEEDDIAMYFCQQSRKVPWTFGGGTKLEIKR
Consider B17, for which the EC50 worked out at 0.0092 µg/mL in assay [1] and 0.0169 µg/mL in assay [2].

B18: Kp 1B02 (antibody, V domains shown)
VH: B4 VH with P7S, G9A, T58S
VL: QIVLTQSPAILSASPGEKVTMTCRASSSLHYMHWYQQKTGSSPKPWIYATSNLASGVPARFSGSGSGTSYSLTISRVEAEDTATYYCQQWSSNPPTFGAGTKLELKR
In the case of B18, the EC50 in assay [1] came out at 0.024 µg/mL; in assay [2], 0.0166 µg/mL.

B19: Ec F11 (antibody, V domains shown)
VH: QVQLKESGPGLVAPSQSLSITCTVSGFSLTNYAISWVRQPPGKGLEWLGIIWTGGGTLYNSALKSRPSISKDNSKSQVFLKMNSLQTDDTARYYCARAYYSNYDWYFDVWDTGTTVTVSS
VL: DIQMTQSPSSLSASLGDRVTISCSASQGISNYLNWYQQKPDGTVKLLIYYTSSLHSGVPSRFSGSGSGTDYSLTISNLEPEDIATYYCQQYSQVPYTFGGGTKLEIKR
Consider B19, for which the EC50 was 0.0273 µg/mL in assay [1] and 0.752 µg/mL in assay [2].
